From article PMC7039211, “Cryo-EM structure of the complete and ligand-saturated insulin receptor ectodomain” (The Journal of Cell Biology, 2019) come the findings set out here.

This data set deals with the molecule itself. The experiment in a line: cryo-EM structure; ~1.4 µM IR-ECD with ~40 µM insulin (28x molar excess), ~30 min at 4°C, HBS; no symmetry imposed; saturated state, 4.3 Å.

B1: human insulin receptor ectodomain protomer IRαβ0 (domain or fragment)
chain 1: HLYPGEVCPGMDIRNNLTRLHELENCSVIEGHLQILLMFKTRPEDFRDLSFPKLIMITDYLLLFRVYGLESLKDLFPNLTVIRGSRLFFNYALVIFEMVHLKELGLYNLMNITRGSVRIEKNNELCYLATIDWSRILDSVEDNYIVLNKDDNEECGDICPGTAKGKTNCPATVINGQFVERCWTHSHCQKVCPTICKSHGCTAEGLCCHSECLGNCSQPDDPTKCVACRNFYLDGRCVETCPPPYYHFQDWRCVNFSFCQDLHHKCKNSRRQGCHQYVIHNNKCIPECPSGYTMNSSNLLCTPCLGPCPKVCHLLEGEKTIDSVTSAQELRGCTVINGSLIINIRGGNNLAAELEANLGLIEEISGYLKIRRSYALVSLSFFRKLRLIRGETLEIGNYSFYALDNQNLRQLWDWSKHNLTITQGKLFFHYNPKLCLSEIHKMEEVSGTKGRQERNDIALKTNGDQASCENELLKFSYIRTSFDKILLRWEPYWPPDFRDLLGFMLFYKEAPYQNVTEFDGQDACGSNSWTVVDIDPPLRSNDPKSQNHPGWLMRGLKPWTQYAIFVKTLVTFSDERRTYGAKSDIIYVQTDATNPSVPLDPISVSNSSSQIILKWKPPSDPNGNITHYLVFWERQAEDSELFELDYCLKGLKLPSRTWSPPFESEDSQKHNQSEYEDSAGECCSCPKTDSQILKELEESSFRKTFEDYLHNVVFVPRPSRKRR
chain 2: SLGDVGNVTVAVPTVAAFPNTSSTSVPTSPEEHRPFEKVVNKESLVISGLRHFTGYRIELQACNQDTPEERCSVAAYVSARTMPEAKADDIVGPVTHEIFENNVVHLMWQEPKEPNGLIVLYEVSYRRYGDEELHLCVSRKHFALERGCRLRGLSPGNYSVRIRATSLAGNGSWTEPTYFYVTDYLDVPSNIAK
modifications: glycosylated | glycosylated
Broadly, the stoichiometry N is a count of units in the complex or per binding partner. Turning to B1, the “stoichiometry N” value amounted to 2.
